Residue numbers refer to the chain shown, from its start.

One test has as its target htau40 (Homo sapiens, UniProt P10636). The test is described as follows: Biacore X100 SPR of anti-tau mAbs on immobilised htau40. Particulars: mAb, Table 27, immobilised hT40. The format is binding. As to the method:
For anti-tau mAb SPR measurements, htau40 was conjugated to the surface of a CM5 sensor chip using amine coupling as explained previously. Briefly, 2 μg/mL htau40 in 10 mM Sodium acetate buffer (pH 4.0) was passed over the activated chip surface (EDC/NHS) in flow cell 2 for a period for 45 s followed by blocking with 1 M ethanolamine-HCl PH 8.5. Flow cell 1 was set up as reference control and blocked simultaneously. Final immobilisation level of htau40 (Rmax) was approximately 250 RU. Following a minimum of three start-up cycles, increasing concentrations (0.78 nM-25 nM) of the mAb in HBS-EP+ buffer was added at a rate of 30 μL/min to the chip. The mAb was added for a 120 s association period and 600 s dissociation period followed by a regeneration cycle of 30 s injection of glycine buffer pH 1.5 in between each cycle. Binding responses were analysed in Biacore X100 evaluation software and data fitted to a 1:1 binding model to obtain kinetic and affinity characterisation.
For anti-tau mAb SPR measurements (Biacore X100™) and epitope mapping, the same methodologies described above (see Example 16) were followed. Kinetic rates and equilibrium binding constants of additional anti-tau mAbs and the regions recognised on hT40 are given in the Table 25 below
In general terms: SPR reads the build-up and loss of mass on a sensor chip optically.

Test [1] has as its system alanine substituted 13mer tau peptides. The test is described as follows: Alanine scanning mutagenesis (ASM) peptide ELISA. The format is binding, human. The note with it: numbering according to SEQ ID NO: 1; description text 'may be'. Here is the method:
To further elucidate epitopes of the scAb panel, and identify the critical amino acids needed for binding, alanine scanning mutagenesis of the parent 13 aa peptides for scAbs CE2, S1D12, CA4 and S1G2 was performed. […] Briefly, 5 μg/ml streptavidin (Thermo Fisher) was adsorbed to Nunc 96-well MaxiSorp plates and following incubation at 37° C., for 1 h, the plates were washed as normal and blocked with 2% MPBS. N-terminally biotinylated peptides (Prolmmune Ltd) were added to the plates and incubated for 1 h at 37° C. Subsequently, test scAbs at starting concentrations of 100-500 nM was added and double diluted across the plate for each peptide and incubated for 1 h at 37° C. Rest of the ELISA was conducted as described above and the plates were read at absorbance 450 nm. Immunoreactivity of the scAb of interest was quantified as the % of scAb was bound for each peptide at a chosen concentration (FIG. 15-20).
(ELISA stands for enzyme-linked immunosorbent assay.)

The next test deals with hT40 (Homo sapiens, UniProt P10636). The test is described as follows: Biacore X100 SPR, scAb captured via anti-HuCk, hT40 as analyte. The format is binding. The note with it: scAb, Table 23, T441 (hT40). As to the method:
Surface plasmon resonance (SPR) is widely regarded as the gold standard for real time measurement of protein-protein interactions such as antibody binding. All SPR experiments were carried out using a Biacore X100 machine and HBS EP+ running buffer (GE Healthcare). A ‘capture’ method was followed for affinity measurements, where an anti-human constant kappa chain (HuCk) antibody was conjugated to the surface of a CM5 sensor chip using an amine coupling kit and scAb molecules were immobilised via their HuCk domain. Amine coupling is a very common approach for immobilising the ligand to the chip surface. […] The capture antibody was diluted 1/100 in 10 mM Sodium acetate buffer pH 5.0 and passed over the activated chip surface for a period of at least 420 s. Final ligand immobilisation levels over 12,000 RU were deemed to be satisfactory.
(§1) Following immobilisation, the level of each scAb to be captured was identified using the standard SPR equation with a theoretical RMax of 100 RU. Analyte MW refers to the molecular weight of hT40 or dGA/dGAE molecules, while ligand MW refers to the molecular weight of the scAbs tested. RL is the desired capture level and S refers to the stoichiometric ratio:
The scAb to be tested was added only to flow cell 2 so that flow cell 1 could act as a control to subtract any interaction with the analyte and the chip surface. Both single and multi-cycle runs were utilised using wizards developed in the Biacore X100 control software which are both accepted methods of kinetic analysis (Karlsson, R., et al. Analyzing a kinetic titration series using affinity biosensors (2006) Analytical Biochemistry 349:136-47). The multi-cycle protocol was as follows-Three start-up cycles composed of an initial capture, to the desired level, of the scAb to be tested was performed followed by a 30 s injection of glycine buffer pH 2.0 after each cycle to regenerate the chip surface. […] Following three start-up cycles increasing concentrations (0.15625 nM-100 nM) of the target to be tested were added to the chip surface after the desired scAb capture. The target was added for a 120 s association period and 420 s dissociation period followed by another regeneration, 30 s injection of glycine buffer pH 2.0 in between each cycle.
(§2) The single cycle kinetics protocol was similar and utilised the same level of scAb capture. Three start-up cycles were used followed by 5 increasing concentrations of the analyte (6.25 nM-100 nM) for an association period of 120 s followed by a dissociation period of 420 s for each concentration. In single cycle kinetics the regeneration step was performed only after the final analyte concentration was added. Binding responses were analysed in Biacore X100 evaluation software and data fitted to a 1:1 binding model to obtain kinetic and affinity characterisation.

The target in another test is dGA (Homo sapiens, UniProt P10636). As to the kind of experiment: Biacore X100 SPR, scAb captured via anti-HuCk, dGA as analyte. The format is binding. The note with it: dissociation rate. As to the method: Surface plasmon resonance (SPR) is widely regarded as the gold standard for real time measurement of protein-protein interactions such as antibody binding. All SPR experiments were carried out using a Biacore X100 machine and HBS EP+ running buffer (GE Healthcare). A ‘capture’ method was followed for affinity measurements, where an anti-human constant kappa chain (HuCk) antibody was conjugated to the surface of a CM5 sensor chip using an amine coupling kit and scAb molecules were immobilised via their HuCk domain. Amine coupling is a very common approach for immobilising the ligand to the chip surface. The chip surface has a dextran matrix derivatised with carboxyl groups, which after activation with N-hydroxysuccinimide (NHS) and 1-ethyl-3-(3-dimethylaminopropyl) carbodiimide (EDC), form reactive succinimide esters which allows the covalent capturing of the ligand via any available primary amine groups (e.g. Lysine) on the ligand (in this case anti-HuCk antibody). The capture antibody was diluted 1/100 in 10 mM Sodium acetate buffer pH 5.0 and passed over the activated chip surface for a period of at least 420 s. Final ligand immobilisation levels over 12,000 RU were deemed to be satisfactory.
as §1
The scAb to be tested was added only to flow cell 2 so that flow cell 1 could act as a control to subtract any interaction with the analyte and the chip surface. Both single and multi-cycle runs were utilised using wizards developed in the Biacore X100 control software which are both accepted methods of kinetic analysis (Karlsson, R., et al. Analyzing a kinetic titration series using affinity biosensors (2006) Analytical Biochemistry 349:136-47). The multi-cycle protocol was as follows-Three start-up cycles composed of an initial capture, to the desired level, of the scAb to be tested was performed followed by a 30 s injection of glycine buffer pH 2.0 after each cycle to regenerate the chip surface. The regeneration step removed any captured scAb whilst leaving the capture antibody intact and able to repeat the capture for the next cycle. Following three start-up cycles increasing concentrations (0.15625 nM-100 nM) of the target to be tested were added to the chip surface after the desired scAb capture. The target was added for a 120 s association period and 420 s dissociation period followed by another regeneration, 30 s injection of glycine buffer pH 2.0 in between each cycle.
as §2

Another test has as its target dGAE aggregates (Homo sapiens, UniProt P10636). The test is described as follows: Sandwich ELISA on SDS/Triton X-100 treated dGAE aggregates. In kind it is binding. As to the method: For aggregation, 1000 μL 100 μM dGAE+10 μL 10 mM DTT was added to a ‘LoBind’ microfuge tubes and agitated at 700 RPM/37° C., for 24 hours. Resulting sample centrifuged at 17,000×g/4° C., for 60 min and supernatant discarded to remove left over monomer. Pellet resuspended in half the original volume for future experiments and hereafter referred to as ‘aggregates’. 1 μl of aggregates was added to 1 ml of PBS and SDS was added to a final concentration of 1% (w/v). This was left to incubate on lab bench for 1 h with gentle agitation every 15 minutes. In order to neutralise the SDS effect on ELISA, Triton X-100 added to a final concentration of 3% (v/v) and mixed gently by pipetting to prevent any bubble formation. […] Similarly aggregates treated with only SDS or Triton X-100, untreated aggregates, dGAE monomers treated with only SDS or SDS+Titon X-100 were also added to designated wells as controls. All samples were then double diluted across the plate in final volumes of 100 μl. The final column was left with no protein to act as a blank. This was allowed to stand at room temperature for 1 hour followed by the addition of detection scAb-S1G2 at 10 μg/ml. Anti-HuCk HRP labelled secondary antibody was added as described previously and ELISA data generated was represented using the graph below. In addition, limits of detection (LoD) of various core binding antibody pairing for SDS Triton X-100 treated dGAE aggregates were calculated using the above describe ELISA method and substituting capture mAbs and detection scAbs as shown in Table 30.

[2] abbreviates: S1D12 mAb capture, +SDS Triton dGAE agg.
The mark [3] stands for this setting: direct immobilisation of dGAE aggregates, +SDS Triton.

Chain of hT40 (P10636 1-441 isoform P10636-8): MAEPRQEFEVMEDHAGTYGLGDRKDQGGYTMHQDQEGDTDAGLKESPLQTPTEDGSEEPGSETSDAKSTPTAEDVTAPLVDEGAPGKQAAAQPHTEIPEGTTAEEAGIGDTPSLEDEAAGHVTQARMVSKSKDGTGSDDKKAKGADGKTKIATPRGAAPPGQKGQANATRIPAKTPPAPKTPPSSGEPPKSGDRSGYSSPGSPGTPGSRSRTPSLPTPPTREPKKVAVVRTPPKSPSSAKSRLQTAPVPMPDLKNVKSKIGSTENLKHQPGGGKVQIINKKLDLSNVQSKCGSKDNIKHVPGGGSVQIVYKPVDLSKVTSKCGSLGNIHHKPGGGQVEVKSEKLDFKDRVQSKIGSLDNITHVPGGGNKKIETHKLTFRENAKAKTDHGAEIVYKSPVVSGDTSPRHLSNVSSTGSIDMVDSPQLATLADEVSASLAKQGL
Chain of dGAE aggregates (P10636 614-708): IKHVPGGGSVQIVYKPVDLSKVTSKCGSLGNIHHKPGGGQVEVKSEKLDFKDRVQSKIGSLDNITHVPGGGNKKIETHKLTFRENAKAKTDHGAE
Chain of htau40 (P10636 1-441 isoform P10636-8): as the sequence (P10636 1-441 isoform P10636-8) above
Chain of dGA (P10636 614-707): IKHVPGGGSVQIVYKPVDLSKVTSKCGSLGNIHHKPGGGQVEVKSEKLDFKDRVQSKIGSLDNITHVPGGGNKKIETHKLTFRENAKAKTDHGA

B1: CA4: anti-tau clone, SEQ ID NO: 368 (protein)
chain: QVQLQESGPSLVKPSQTLSLTCTVSGFSLTSYSVYWVRQAPGQALEWISIMYASGRVDYNPALKSRLSITRDTSKSQFSLSLSSVTTEDTAVYYCTRGIENWGPGLLVTVSSEGKSSGASGESKVDDDIQVTQSPSSLSASLTERVSITCRTSQSVNNYLSWYQQKPGQAPKLLIYYATRLYTDVPSRFSGSGSGTDYTLTITSLEADDTATYYCLQYDSTPLAFGGGTNVEIK
modifications: CA4 amino acid sequence
In the test with htau40, B1 came in with a ka of 1.02e+06 M⁻¹ s⁻¹ and a kd of 0.001276 s⁻¹. In test [1], the “Critical residues of the epitope” value is 358 (D), 360 (I), 361 (T), 362 (H) and/or 364 (P). For the same molecule, in the test with hT40, the ka is 458100 M⁻¹ s⁻¹ and the kd was found to be 0.001654 s⁻¹.

B2: CA9: anti-tau clone, SEQ ID NO: 371 (protein)
scFv: QVQLQESGPSLVKPSQTLSLTCTVSGFSLTSNSVGWVRQAPGKAPEWVAGIDTDGEEGYNPALNSRLSITRDTSKSQVSLSLSSVTSEDTAVYYCGRSYRSDGLAYGYVQAIDYWGPGLLVTVSSEGKSSGASGESKVDDQAVLTQPASVSGSLGQRVSITCSGSFIGISSVGWFQQLPGSGLRTIIVASDGRPSGVPDRFSMSKSGNTATLTISSLQAEDEADYFCGSSDRTQYTGVFGSGTRLTVLG
modifications: CA9 amino acid sequence
Turning to B2, the “Critical residues of the epitope” value in test [1] was 370 (K), and/or 374 (H).

B3: S1E12: anti-tau clone, SEQ ID NO: 218 (protein)
scFv: B2 scFv with T30G, S101A, Q141R, A142V, L144R, A148S
modifications: S1E12 amino acid sequence
For the molecule B3, the “Kd” value with dGA was found to be 0.001627 s⁻¹. In the test with hT40, this molecule registered a ka of 385000 M⁻¹ s⁻¹ and a kd of 0.000319 s⁻¹.

B4: CA9 scAb (protein)
scFv: B2 scFv
modifications: left off: small tags and cut ends
B4: the LoD is 4 ng/mL with dGAE aggregates (setting [2]) and 40 ng/mL in the test with dGAE aggregates (setting [3]).

B5: CA12: anti-tau clone, SEQ ID NO: 372 (protein)
scFv: QVQLQGSGPSLVKPSQTLSLTCTVSGFSFDSYYVGWVRQAPGKALEWLGNIYSTGRAFYNPALKSRLSITRDTSKSQVSLSVSSVTIEDTALYYCVRGSYYHGGGNGMVDFFDYWSPGLLVTVSSEGKSSGASGESKVDDQVVRTQPSSVSGSLGQRVSITCSGSSSNVGYGNYVGWFQQVPGSAPKLLIYAATSRASGVPDRFSGSRSGNTATLTIDSLQAEDEADYYCSSYQRGNTGVFGSGTRLTVLG
modifications: CA12 amino acid sequence
In the case of B5, the “Critical residues of the epitope” value in test [1] is reported as 370 (K), and/or 374 (H).

B6: CA12 scAb (protein)
scFv: B5 scFv
modifications: left off: small tags and cut ends
B6: the LoD amounted to 2 ng/mL with dGAE aggregates (setting [2]) and 16 ng/mL with dGAE aggregates (setting [3]).

Values taken from US12624096B2, “Anti-tau antibodies and methods of use thereof” (GTInvent Limited, priority 2020, dated 2026).
